# Test results: PMC9482650, “Quantitative fragmentomics allow affinity mapping of interactomes” (Nature Communications, 2022)
# T1: PCLO, Q9Y6V0
# T1 sequence (Q9Y6V0 4491-4600, limits assumed, looked up): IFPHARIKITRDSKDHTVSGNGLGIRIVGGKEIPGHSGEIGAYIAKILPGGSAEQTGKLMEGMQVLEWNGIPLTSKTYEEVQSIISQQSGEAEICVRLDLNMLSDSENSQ
# T2: DFNB31_3, Q9P202
# T2 sequence (Q9P202 811-907, limits assumed, looked up): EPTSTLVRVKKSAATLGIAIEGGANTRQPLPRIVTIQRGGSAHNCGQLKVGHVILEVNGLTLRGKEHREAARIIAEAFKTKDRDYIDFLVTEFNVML
# T3: DVL3, Q92997
# T3 sequence (Q92997 244-331, limits assumed, looked up): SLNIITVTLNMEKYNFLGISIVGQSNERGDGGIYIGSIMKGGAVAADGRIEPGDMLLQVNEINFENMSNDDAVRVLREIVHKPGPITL
# T4: DLG3_3, Q92796
# T4 sequence (Q92796 374-475, limits assumed, looked up): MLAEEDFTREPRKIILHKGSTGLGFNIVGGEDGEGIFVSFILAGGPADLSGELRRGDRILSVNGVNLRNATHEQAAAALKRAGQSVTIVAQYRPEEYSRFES
# T5: GRIP1_3, Q9Y3R0
# T5 sequence (Q9Y3R0 247-346, limits assumed, looked up): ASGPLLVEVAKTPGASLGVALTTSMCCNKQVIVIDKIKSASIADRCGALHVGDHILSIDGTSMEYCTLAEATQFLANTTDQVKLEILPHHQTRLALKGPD
# T6: LNX2_3, Q8N448
# T6 sequence (Q8N448 463-564, limits assumed, looked up): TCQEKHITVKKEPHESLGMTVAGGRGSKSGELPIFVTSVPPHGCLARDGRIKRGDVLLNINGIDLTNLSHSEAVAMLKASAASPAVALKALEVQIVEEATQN
# T7: DFNB31_1, Q9P202
# T7 sequence (Q9P202 135-233, limits assumed, looked up): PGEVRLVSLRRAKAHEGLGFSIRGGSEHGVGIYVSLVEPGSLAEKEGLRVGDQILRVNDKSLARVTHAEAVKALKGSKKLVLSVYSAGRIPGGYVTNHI
# T8: RHPN1, Q8TCX5
# T8 sequence (Q8TCX5 508-602, limits assumed, looked up): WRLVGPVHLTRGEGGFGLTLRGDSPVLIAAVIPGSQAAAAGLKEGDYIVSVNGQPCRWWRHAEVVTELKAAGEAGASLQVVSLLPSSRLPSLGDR
# T9: CARD11, Q9BXL7
# T9 sequence (Q9BXL7 662-765, limits assumed, looked up): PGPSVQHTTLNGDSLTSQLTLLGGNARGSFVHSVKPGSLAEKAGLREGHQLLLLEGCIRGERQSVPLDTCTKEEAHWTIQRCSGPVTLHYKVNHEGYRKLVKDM
# T10: GRIP1_7, Q9Y3R0
# T10 sequence (Q9Y3R0 999-1096, limits assumed, looked up): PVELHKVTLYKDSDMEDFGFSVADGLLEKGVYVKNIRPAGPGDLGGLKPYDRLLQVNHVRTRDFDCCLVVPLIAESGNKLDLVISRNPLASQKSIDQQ
# T11: TIAM2, Q8IVF5
# T11 sequence (Q8IVF5 885-986, limits assumed, looked up): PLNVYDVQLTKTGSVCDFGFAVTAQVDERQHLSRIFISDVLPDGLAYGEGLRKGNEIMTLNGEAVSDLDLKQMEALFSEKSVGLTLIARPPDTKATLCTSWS
# Legend:
# Test in all cases: holdup assay
# Parameters in all cases: key: below the threshold = too weak to quantify, mostly under pKd 3.1 to 4
# [1] = target: T1, PCLO, Q9Y6V0
# [2] = target: DLG1_1, Q12959
# [3] = target: T2, DFNB31_3, Q9P202
# [4] = target: T3, DVL3, Q92997
# [5] = target: DLG4_3, P78352
# Chain of DLG4_3, P78352 (P78352 306-403): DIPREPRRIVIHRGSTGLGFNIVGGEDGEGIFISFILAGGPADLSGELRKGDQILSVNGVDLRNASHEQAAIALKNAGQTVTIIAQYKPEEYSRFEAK
# [6] = target: T4, DLG3_3, Q92796
# [7] = target: NHERF2_2, Q15599
# Chain of NHERF2_2, Q15599 (Q15599 142-238): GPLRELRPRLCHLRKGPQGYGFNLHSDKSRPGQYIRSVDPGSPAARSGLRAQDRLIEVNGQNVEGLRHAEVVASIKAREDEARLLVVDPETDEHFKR
# [8] = target: PTPN3, P26045
# Chain of PTPN3, P26045 (P26045 505-587): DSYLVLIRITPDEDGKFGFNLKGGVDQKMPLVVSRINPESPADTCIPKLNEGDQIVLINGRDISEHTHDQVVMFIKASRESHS
# [9] = target: T5, GRIP1_3, Q9Y3R0
# [10] = target: T6, LNX2_3, Q8N448
# [11] = target: T7, DFNB31_1, Q9P202
# [12] = target: T8, RHPN1, Q8TCX5
# [13] = target: Inadl_6, Q8NI35
# Chain of Inadl_6, Q8NI35 (Q8NI35 1058-1167): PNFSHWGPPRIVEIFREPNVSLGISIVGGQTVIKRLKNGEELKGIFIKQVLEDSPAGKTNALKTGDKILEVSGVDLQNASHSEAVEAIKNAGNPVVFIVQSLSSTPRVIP
# [14] = target: CASK, O14936
# Chain of CASK, O14936 (O14936 487-570): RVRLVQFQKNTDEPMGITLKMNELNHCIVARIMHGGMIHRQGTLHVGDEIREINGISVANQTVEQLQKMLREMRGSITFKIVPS
# [15] = target: TJP2_1, Q9UDY2
# Chain of TJP2_1, Q9UDY2 (Q9UDY2 24-128): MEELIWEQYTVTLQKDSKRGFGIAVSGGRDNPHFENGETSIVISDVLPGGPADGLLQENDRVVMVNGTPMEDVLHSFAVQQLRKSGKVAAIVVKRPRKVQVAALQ
# [16] = target: FRMPD3, Q5JV73
# Chain of FRMPD3, Q5JV73 (Q5JV73 12-100): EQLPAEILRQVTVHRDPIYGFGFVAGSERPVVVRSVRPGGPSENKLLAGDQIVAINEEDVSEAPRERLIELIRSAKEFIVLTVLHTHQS
# [17] = target: T9, CARD11, Q9BXL7
# [18] = target: T10, GRIP1_7, Q9Y3R0
# [19] = target: MAGI2_3, Q86UL8
# Chain of MAGI2_3, Q86UL8 (Q86UL8 600-682): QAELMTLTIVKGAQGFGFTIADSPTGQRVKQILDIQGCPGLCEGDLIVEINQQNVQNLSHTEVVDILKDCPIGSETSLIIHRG
# [20] = target: SCRIB_3, Q14160
# Chain of SCRIB_3, Q14160 (Q14160 999-1103): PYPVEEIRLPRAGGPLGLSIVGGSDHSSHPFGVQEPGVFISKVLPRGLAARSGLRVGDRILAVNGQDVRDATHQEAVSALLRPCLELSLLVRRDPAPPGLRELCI
# [21] = target: MAST1, Q9Y2H9
# Chain of MAST1, Q9Y2H9 (Q9Y2H9 962-1065): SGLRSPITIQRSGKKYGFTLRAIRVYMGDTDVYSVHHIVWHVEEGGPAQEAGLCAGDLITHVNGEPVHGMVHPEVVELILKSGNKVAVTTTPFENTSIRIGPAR
# [22] = target: MAGI1_2, Q96QZ7
# Chain of MAGI1_2, Q96QZ7 (Q96QZ7 456-580): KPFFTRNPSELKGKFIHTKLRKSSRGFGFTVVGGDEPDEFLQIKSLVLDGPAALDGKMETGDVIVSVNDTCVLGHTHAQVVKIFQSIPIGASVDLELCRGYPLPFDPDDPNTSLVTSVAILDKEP
# [23] = target: DLG1_2, Q12959
# [24] = target: Inadl_10, Q8NI35
# Chain of Inadl_10, Q8NI35 (Q8NI35 1673-1763): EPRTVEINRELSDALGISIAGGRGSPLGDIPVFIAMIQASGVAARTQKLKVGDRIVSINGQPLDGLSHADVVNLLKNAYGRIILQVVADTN
# [25] = target: T11, TIAM2, Q8IVF5
# [26] = target: GRID2IP_2, A4D2P6
# Chain of GRID2IP_2, A4D2P6 (A4D2P6 272-370): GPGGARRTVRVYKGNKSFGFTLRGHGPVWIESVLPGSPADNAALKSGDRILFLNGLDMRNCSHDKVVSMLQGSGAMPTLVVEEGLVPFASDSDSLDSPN
# [27] = target: MAGI2_5, Q86UL8
# Chain of MAGI2_5, Q86UL8 (Q86UL8 915-1017): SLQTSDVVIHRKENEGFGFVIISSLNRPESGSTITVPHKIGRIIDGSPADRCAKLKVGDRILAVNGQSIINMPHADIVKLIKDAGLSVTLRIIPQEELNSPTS
# [28] = plain residues with an end cap or a label only (N-terminal biotin on a linker: ahx)
# [29] = plain residues with an end cap or a label only (N-terminal biotin on a linker: ttds)
binder,measurement,setting,value
"LCKSHAFSHV [PDLIM7, Q9NR12;Q9NR12-1]",pKd,[1]; [28],below the threshold
same,pKd,[2]; [28],below the threshold
same,pKd,[3]; [28],below the threshold
same,pKd,[4]; [28],below the threshold
same,pKd,[5]; [28],below the threshold
same,pKd,[6]; [28],below the threshold
same,pKd,[7]; [28],below the threshold
same,pKd,[8]; [28],below the threshold
same,pKd,[9]; [28],below the threshold
same,pKd,[10]; [28],below the threshold
same,pKd,[11]; [28],below the threshold
same,pKd,[12]; [28],4.38
same,pKd,[13]; [28],below the threshold
same,pKd,[14]; [28],below the threshold
same,pKd,[15]; [28],4.09
same,pKd,[16]; [28],below the threshold
same,pKd,[17]; [28],below the threshold
same,pKd,[18]; [28],below the threshold
same,pKd,[19]; [28],below the threshold
same,pKd,[20]; [28],below the threshold
"KKNKDKEYYV [NRXN1, Q9ULB1]",pKd,[1]; [28],below the threshold
same,pKd,[2]; [28],below the threshold
same,pKd,[3]; [28],below the threshold
same,pKd,[4]; [28],3.61
same,pKd,[5]; [28],below the threshold
same,pKd,[6]; [28],below the threshold
same,pKd,[21]; [28],below the threshold
same,pKd,[7]; [28],below the threshold
same,pKd,[22]; [28],below the threshold
same,pKd,[8]; [28],below the threshold
same,pKd,[23]; [28],below the threshold
same,pKd,[9]; [28],below the threshold
same,pKd,[10]; [28],below the threshold
same,pKd,[11]; [28],below the threshold
same,pKd,[12]; [28],below the threshold
same,pKd,[13]; [28],below the threshold
same,pKd,[14]; [28],below the threshold
same,pKd,[24]; [28],below the threshold
same,pKd,[15]; [28],below the threshold
same,pKd,[25]; [28],4.11
same,pKd,[26]; [28],below the threshold
same,pKd,[27]; [28],3.57
same,pKd,[16]; [28],3.5
same,pKd,[17]; [28],below the threshold
same,pKd,[18]; [28],4.09
same,pKd,[19]; [28],below the threshold
same,pKd,[20]; [28],below the threshold
"TEEEVQDTRL [CFTR, P13569]",pKd,[1]; [29],below the threshold
same,pKd,[2]; [29],below the threshold
same,pKd,[3]; [29],below the threshold
same,pKd,[4]; [29],below the threshold
same,pKd,[5]; [29],below the threshold
same,pKd,[6]; [29],below the threshold
same,pKd,[21]; [29],4.77
same,pKd,[22]; [29],below the threshold
same,pKd,[8]; [29],4.21
same,pKd,[23]; [29],below the threshold
same,pKd,[9]; [29],below the threshold
same,pKd,[10]; [29],below the threshold
same,pKd,[11]; [29],3.79
same,pKd,[12]; [29],4.12
same,pKd,[13]; [29],below the threshold
same,pKd,[14]; [29],below the threshold
same,pKd,[24]; [29],below the threshold
same,pKd,[15]; [29],below the threshold
same,pKd,[25]; [29],below the threshold
same,pKd,[26]; [29],below the threshold
same,pKd,[27]; [29],below the threshold
same,pKd,[16]; [29],below the threshold
same,pKd,[17]; [29],below the threshold
same,pKd,[18]; [29],3.74
same,pKd,[19]; [29],below the threshold
same,pKd,[20]; [29],below the threshold
"CLDTSRETDL [KCNA5, P22460]",pKd,[1]; [29],below the threshold
same,pKd,[2]; [29],3.79
same,pKd,[3]; [29],below the threshold
same,pKd,[4]; [29],below the threshold
same,pKd,[5]; [29],below the threshold
same,pKd,[6]; [29],below the threshold
same,pKd,[21]; [29],4.91
same,pKd,[7]; [29],4.49
same,pKd,[22]; [29],below the threshold
same,pKd,[8]; [29],4.92
same,pKd,[23]; [29],4.79
same,pKd,[9]; [29],3.66
same,pKd,[10]; [29],below the threshold
same,pKd,[11]; [29],3.84
same,pKd,[12]; [29],4.46
same,pKd,[13]; [29],3.93
same,pKd,[14]; [29],below the threshold
same,pKd,[24]; [29],below the threshold
same,pKd,[15]; [29],below the threshold
same,pKd,[25]; [29],below the threshold
same,pKd,[26]; [29],3.7
same,pKd,[27]; [29],below the threshold
same,pKd,[16]; [29],below the threshold
same,pKd,[17]; [29],below the threshold
same,pKd,[18]; [29],below the threshold
same,pKd,[19]; [29],below the threshold
same,pKd,[20]; [29],5.23
"EDEDEQVSAV [RAPGEF2, Q9Y4G8]",pKd,[1]; [28],below the threshold
same,pKd,[2]; [28],below the threshold
same,pKd,[3]; [28],below the threshold
same,pKd,[4]; [28],below the threshold
same,pKd,[5]; [28],below the threshold
same,pKd,[6]; [28],below the threshold
same,pKd,[21]; [28],4.22
same,pKd,[7]; [28],3.68
same,pKd,[22]; [28],below the threshold
same,pKd,[8]; [28],4.39
same,pKd,[23]; [28],3.85
same,pKd,[9]; [28],below the threshold
same,pKd,[10]; [28],below the threshold
same,pKd,[11]; [28],below the threshold
same,pKd,[12]; [28],4.23
same,pKd,[13]; [28],3.81
same,pKd,[14]; [28],below the threshold
same,pKd,[24]; [28],below the threshold
same,pKd,[15]; [28],below the threshold
same,pKd,[25]; [28],below the threshold
same,pKd,[26]; [28],4.28
same,pKd,[27]; [28],4.46
same,pKd,[16]; [28],below the threshold
same,pKd,[17]; [28],below the threshold
same,pKd,[18]; [28],below the threshold
same,pKd,[19]; [28],4.23
same,pKd,[20]; [28],below the threshold
